Assay results from publication PMC5286356.

Biological target: bovine heart cytochrome c oxidase (bovine) (UniProt P00396)
Experiment: crystal structure; co-crystallised by the batch-wise method at 277 K; 15 mM sodium phosphate pH 8.0, DM and FOM, Cyt.c/CcO molar ratio 1.2, ~5% PEG 4000; ferri-Cyt.c and oxidized CcO; crystals soaked with 50 uM Cyt.c; refined at 2.0 A

stoichiometry N: 2
Substance: bovine heart cytochrome c oxidase (from UniProt P00396 1-514; P68530 1-227; P00429 1-86) (complex)
